# Assay results taken from the nanobody polyreactivity screen of Harvey et al. (2022).
# Test: yeast display, Sf9 membrane polyspecificity reagent, FACS + sequencing; frameworks hold sequencing errors
# Procedure, shortened: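 Synthetic nanobody libraries on Saccharomyces cerevisiae BJ5465 were galactose-induced for 36–48 hours, stained 1 hour at 4 °C with 10% biotinylated, detergent-solubilized Sf9 membrane reagent and enriched on streptavidin microbeads. FACS then separated cells into low and high (top ~1%) gates by anti-HA (expression) and streptavidin (reagent binding) fluorescence. Genes were colony-PCR amplified, MiSeq 2 × 250 sequenced and CDR-length filtered. A clone's polyreactivity label is that of its gate of origin.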
row,Sequence,polyreactivity (PSR sort gate)
1,QVQLVESGGGLVQAGGSLRLSWAASGSIFVHNTMGWYRQAPGKERELVAAITRSVGRTYFADSVKGRFTISRDNAKNTVYLQMTSLQPADTAVYYCAKPASKGYYWGQGTQVTVSS,high polyreactivity
2,QVQLVESGGGLVQAGGSLRLSWAASGSTFDSNGMGRYRQAPGKERELVATITSRGASTNYSDSVKGRFTISRDNAKNTVYLEMNSLKPEDTAVYYCNREVPWWLYKYVGHDYWGQGTQVTVSS,low polyreactivity
3,QVQLVESGGGLVQAGGSLRLSWAASGSTFDYYAMGWYRQAPGKERELVAAIRWSDGSTYYADSVKGRFTISRDNAKNTVYLQMNSLKPEDTAVYYCAADALYWIGRMDYWGQGTQVTVSS,low polyreactivity
4,QVQLVESGGGLVQAGGSLRLSWAASGSTFPYYAMGWYRQAPGKERELVAAISWSDANTYYADSVKGRFTISRDNAKNTVYLQMNSLKPEDTAVYYCAAEPYDRYGPYTGYGLNYWGQGTQVTVSS,low polyreactivity
5,QVQLVESGGGLVQAGGSLRLSWAASGSTFYPYAMGWYRPAPGKERELVAAISSSSSTNYADSVKGRFTISRDNAKNTVYLQMNSLKPEDTAVYYCAVTRVIESKQIRYDYWGQGTQVTVSS,low polyreactivity
6,QVQLVESGGGLVQAGGSLRLSWDASGYTFSRNAMGWYRQAPGKERELVAGISWSGSRTYYADSVKGRFTISRDNAKNTVYLQMNSLKPEDTAVYYCAVLAYGPRNARGGTAGYDYWGQGTEVTVSS,high polyreactivity
7,QVQLVESGGGLVQAGGSLRLSYAASGSTFHLYAMGWYRQAPGKERELVASINSGGSTYYADSVKGRFTISRDNAKNTVYLQMNSLKPEDTAVYYCAADAYSWWGRWERYPYTTMYYWGQGTQVTVSS,low polyreactivity
8,QVQLVESGGGLVQAGGSLRLTCAASGAIFEYYSMSWYIQAPGKERELVAAISSGGPTYYADSVKGRFTISRDNAKNTVYLQMNSLKPEDTAVYYCNADLWYPDYEYWGQGTQVNVSS,low polyreactivity
9,QVQLVESGGGLVQAGGSLRLTCAASGFIFNRYAMGWYRQAPGKERELDADLTGGSTYYAVSVKGRFTISRDNAKKSVYLQLNSVTPEDTAVDYCAADVLPISTLLFRGPGFDSWGQGTQVTFSS,low polyreactivity
10,QVQLVESGGGLVQAGGSLRLTCAASGFIFPRYAMGWYRQAPGKERELVAAISGNGVRTYYADSVKGRFTISRDNAKNTVYLQMNSLNPEDTAVYYCNTGADVRYRYYYWGQGTQVTVSS,high polyreactivity
11,QVQLVESGGGLVQAGGSLRLTCAASGFIFYKYAMGWYRQAPGKERELVAAISRGGGSTYYADSVKGRFTISRDNAKNTVYLQMNSLKPEETAVYYCAAQAFIVRPSYVPRHNYWGQGTQVTVSS,high polyreactivity
12,QVQLVESGGGLVQAGGSLRLTCAASGFTFFTYTMGWYRQPPGKERELVAAISRDGARTNYADSVKGRFTISRDNAKNTVYLQMNSLKPEDTAVYYCAAPTSHLYTEKYDYWGQGTQVTVSS,high polyreactivity
13,QVQLVESGGGLVQAGGSLRLTCAASGFTFGRYAMGWYRQAPGKERELVAAISTRGGSTYYADSVKGRFTISRDNAKNTVYLQMNSLKPEDTAVYYCAAGGYYVRYDYWGQGTQVTVSS,high polyreactivity
14,QVQLVESGGGLVQAGGSLRLTCAASGFTFSEYAMGWYRQAPGKEMEVVAAISWRGGSTYYADSVKGRFTISRDNAKNTVYLQMNSLKPEDTAVYYCAADSSGVYASWYKMDYWGKGTQVTVSS,high polyreactivity
15,QVQLVESGGGLVQAGGSLRLTCAASGFTFVINDMGWYRQAPGKERELVADITSGGDTYYADSVKGRFTISRDNAKNTVNFQMYSLKPEDTAVYYCAADIYPDWIYLLYGYWGQGTQVTVSS,low polyreactivity
16,QVQLVESGGGLVQAGGSLRLTCAASGFTIGYYAMGWYRQAPGKERELVAAISWSGGRTYYADSVKGRFTISRDNAKNTVYLQMNSLKPEDTAVYDCAADGQQTYSGYDYWGQGTQVTVSS,high polyreactivity
17,QVQLVESGGGLVQAGGSLRLTCAASGFTLGLNAMGWYRQAPGKEREVVAAIRRSAGSTYYADSVKGRFTISRDNAKNTVYLQMNSLKPEDTAVYYCAAGFLWAKYAYGHWGQGTQVTVSS,low polyreactivity
18,QVQLVESGGGLVQAGGSLRLTCAASGGIFVFYAMGWYRQAPGKERELVAAIRYGGSSTYYADSVKGRFTISRDNAKNTVYLQMNSLKPEDTAVYYCAAEPYSWDTWVDYDYWGQGTQVTVSS,low polyreactivity
19,QVQLVESGGGLVQAGGSLRLTCAASGIIFQNYAMGWYRQAPGKERELVAGITGRGGITYYTDSVKGRFTISRDNAKNTVYVQMNSLKPEDTAVSSCAARRYRFAGDYRMYYWGQGTQVTVSS,high polyreactivity
20,QVQLVESGGGLVQAGGSLRLTCAASGLIFGSNAMRWYRKAPGKERELVAGISGSGEHYVLRRSVKGRFTISRDNAKNTVYVQMNSLKPEDTAVYYCATYSQSSKGPAGYDYWGQGTHVTVSS,high polyreactivity

row,Sequence,polyreactivity (PSR sort gate)
1,QVQLVESGGGLVQAGGSLRLTCAASGLIFPFYAMGWYRQATGKERELVAAISSRGGSTYYADSVKGRFTISRDNAKNTVYLQMSSLKPEDTAVYYCAADYGEEYEYSGQGTQVTVSS,high polyreactivity
2,QVQLVESGGGLVQAGGSLRLTCAASGNIFFVYDMGWYRQAPGKERELVAAISWSGGSTYADSVKGRFTISRDNAKNTVYLQMNSVKPEDTAVDYCAADVAYVEYDYWGQGTQVTVSS,low polyreactivity
3,QVQLVESGGGLVQAGGSLRLTCAASGNIFKVYAMGWSRQAPGKERELVAAITSGGGTKYADSVKGRFTISRDNAKNTVYLQMNSLKPEDTAVYYCAARFKYDVAKRYGYWGQGTQVTVSS,high polyreactivity
4,QVQLVESGGGLVQAGGSLRLTCAASGNIFRAYAMGWYRQAPGKERELVAAISWNAGTTYYADSVKGRFTISRDHAKNTVYLQMHSLKPEDTAVYYCAASKLLRRGLCKYYKATYSYDYWGQGTQVTVSS,high polyreactivity
5,QVQLVESGGGLVQAGGSLRLTCAASGNTFSLNPMGWYRQATGTETELVASSTWDGASTYADSVKGRFTISRDNAKNTVFLQMNSLKPEDTAVYFCAADTYRYGRFLKFDYWGQGTQVTVSS,low polyreactivity
6,QVQLVESGGGLVQAGGSLRLTCAASGNTFYGYSKGWYRQATGKERELVASISLSGDSTYYADSVKGRFTISRDNAKNTVYLQLNSLKPEDTAVYYCAGVYTYPLGYYHYTYDYWGQGTQVTVSS,low polyreactivity
7,QVQLVESGGGLVQAGGSLRLTCAASGRIFALYAMGWYRQAPGKERELVAAITSGSTYYADSVKGRFTISRDNAKNTVYLQMNSLKPEDTAVYYCAADANYYPTEYYPFDYWGQGTQVTVSS,low polyreactivity
8,QVQLVESGGGLVQAGGSLRLTCAASGRIFGAYTMGWYRQEPGKERELVAAISWSGGRTYYADSVKGRFTISRDNAKNTFYLQLNSLNAEDTAVYYCNVRRQSGRYRVYEYDYWGQGTQVTVSS,low polyreactivity
9,QVQLVESGGGLVQAGGSLRLTCAASGRIFNYYAMGWYRQAPGKEREFVAAITRSGGRTYYADSVKGRFTISRDNAKNTVYLQMNSLKPEDTAVYYCAAPYGTYAYDYWGQGTQVTVSS,high polyreactivity
10,QVQLVESGGGLVQAGGSLRLTCAASGRIFRPYTMGWYRQAPGKESELVARISISTGRTYYADSVKGRFTISRDNAKNTVYLQMNSLKPEDTAVYYCATRGYRWSVFDYWGQGTQVTVSS,high polyreactivity
11,QVQLVESGGGLVQAGGSLRLTCAASGRIFTGNSMGWYRQAPGQERELVAAITRRGGNTYYADSVKGRFTISRDNAKNTVYLQMNSLKPEDTAVYSCARDRPGDYAGYDYWGQGTQVTVSS,low polyreactivity
12,QVQLVESGGGLVQAGGSLRLTCAASGRIFTHNAMGWYRQAPGKVRELVAAITSGGRTTYADSVKGRFTISRDNAKNTVYLQMNSLKPEDSAVYDCNADTGLGSLDFDKRDYWGQGTQVTVSS,low polyreactivity
13,QVQLVESGGGLVQAGGSLRLTCAASGRIFWSYAMGWYRQAPGKERELVARITTGSSTNYADSVKGRFTISRDNAKNTVYLQMNSLKPEDTAVYYCAADVSNYYFAYYYWGQGTQVTVSS,low polyreactivity
14,QVQLVESGGGLVQAGGSLRLTCAASGRIFYRYAMGWYRQAPWKERELVAAIRYSGGRTYYADSVKGRFTISRDNAKNTVYLQMNSLQPEDTAVYYCAADGQWYYAPFRGGDYENDYWGQGTQVTVPS,low polyreactivity
15,QVQLVESGGGLVQAGGSLRLTCAASGRIIGFNAMGWYRQAPGKERELVASIRTTGGTTYYADSVKGRFTISSDNAKNTVYLQMNSLKPEDTAVYYCAARRYPPRMDYWGQGTQVTVSS,high polyreactivity
16,QVQLVESGGGLVQAGGSLRLTCAASGRTFRLYAMGWYRQAPGKERELVAAITRGGRTNYADSVKGRFTISRDNAKNTVYLQMNSLKPEDTAVYYCAARYVDRHTDYYYWGQGTQVTVSS,low polyreactivity
17,QVQLVESGGGLVQAGGSLRLTCAASGRTFVENAMGWYRPATGKERELVAAITYSGGGTYYADSVKGRFTISRDNAKNTVYLQMNSVKPEDTAVYDCAATIPYSLDGYDYWGQGTQVTVSS,low polyreactivity
18,QVQLVESGGGLVQAGGSLRLTCAASGRTFYWNVMGWYRQAPGKERELVAITTSGGSTYYADAVKGRFTISRDNAKNTVYLQMNSLKPEDTAVYYCAAQWRSYYDQYGYDYWGQGTQVTVSS,low polyreactivity
19,QVQLVESGGGLVQAGGSLRLTCAASGRTLYRYAMGWYRQAPGKERELVAAITNGGSTKYADSVKGRFTISRDNAKNTVYLQMNSLKPEDTAVYYCYAVVNFILLRIYYGQLYNYWGQGTQVTVSS,low polyreactivity
20,QVQLVESGGGLVQAGGSLRLTCAASGSIFDRNAMGWYRQAPGTERELVAAITYRSGGTYYADSVKGRFTISRDNAKNTVYLQMNSLKPEDTSVYYCNKGYRRYKGYDYWGQGTQVTVSS,high polyreactivity
